{
  "source": "paper PMC9287160",
  "about": "“Structural insights into the function-modulating effects of nanobody binding to the integrin receptor αMβ2” (The Journal of Biological Chemistry, 2022)",
  "binders": {"B1": {"name": "nanobody hCD11bNb1 (His-tagged) (VHH)", "VHH": "QVQLVETGGGLVQAGGSLRLSCAASGNINSFNAMGWFRQAPGKQRELVAAITFGGRTNYADSVKGRFTISRDNTKGSVYLQMNSLKPEDTAVYYCAASENNLLTGVWHYWGRGTQVTVSS", "notes": "nanobody selected by phage display from a llama immunised with the αMβ2 HP; they are in PDB 7NP9 (nanobody alone) and PDB 7P2D (complex); Captured through its His tag on anti-penta-HIS BLI sensors. pET-22b(+) usually adds a C-terminal His6 (surmise); also called parental hCD11bNb1; WT hCD11bNb1"}},
  "molecular_target": "T1, recombinant human αMβ2 αI domain (human)",
  "T1 construct": "αI domain (von Willebrand factor type A domain) of integrin αM (CD11b), human; numbers count on: the mature protein; PDB 4M76 (cited) holds an αI–C3d complex of the same laboratory; also called hαI; human αI domain",
  "T1 chain": "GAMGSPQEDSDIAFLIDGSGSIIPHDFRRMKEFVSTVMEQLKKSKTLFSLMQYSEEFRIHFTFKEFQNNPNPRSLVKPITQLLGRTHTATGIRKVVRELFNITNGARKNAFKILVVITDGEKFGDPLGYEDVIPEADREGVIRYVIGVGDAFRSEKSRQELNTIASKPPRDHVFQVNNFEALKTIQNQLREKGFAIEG",
  "experiment": "BLI; His-tagged hCD11bNb1 on anti-penta-HIS sensors; αMβ2 HP 6.25-50 nM or αI domain 0.8-25 nM in solution; 30 °C; 20 mM Hepes pH 7.5, 150 mM NaCl, 5 mM MgCl2, 1 mM CaCl2; 1:1 model; triplicates; apparent",
  "conditions": "both partners purified",
  "data": [
    {"binder": "B1", "values": [
      {"measurement": "Kd", "value": "1 to 6", "unit": "nM"}
    ]}
  ]
}
